Values of other authors in article PMC6704634.

Target: EGFR isoform I (Homo sapiens) (UniProt P00533)

Kd: 177 nM
Substance: EGF (from UniProt P01133)
